Measurements from the nanobody polyreactivity screen of Harvey et al. (2022).

Assay: yeast display, Sf9 membrane polyspecificity reagent, FACS + sequencing; frameworks hold sequencing errors
Outline: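 A synthetic nanobody library was expressed on Saccharomyces cerevisiae BJ5465 by galactose induction for 36–48 hours. The library was stained for 1 hour at 4 °C with 10% biotinylated, detergent-solubilized Sf9 membrane reagent and enriched with streptavidin microbeads before FACS. Low and high (top ~1%) gates were set on anti-HA fluorescence for expression and streptavidin fluorescence for reagent binding, and each polyreactivity label reflects the gate of origin.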

Row | Sequence | polyreactivity (PSR sort gate)
1 | QVQLVESGGGLVQAGGSLRLSCADSGRTFVTTAMGWYRQAPGKERELVAAIDGGGDRTYYADTVKVRFTISRDYAKYTVYLQMNSLKPEDSAVYYCNKDRGTLYGDMDSWGQGTQVTVSS | low polyreactivity
2 | QVQLVESGGGLVQAGGTLRLSCAASGRILYLNAMGWYRQAPGKEREFVAAISKSGGSTYYADSVKGRFTISRDNAMNSVYLQMNSLKPEDTAVYYCATRFRSAEYDYWGQGTQVTVSS | low polyreactivity
3 | QVQLVESGGGLVQAGGSLRLSCAASGIIFSINAMGWDRQAPGKERELVAAISRSGGSTNYADSVKGRFTISRDNAKNTVYLQMNSLKPEDTAVYYCATVHRYSVWSHNYWGQGTQVTVAS | high polyreactivity
4 | QVQLVESGGGLVQAGGSLRLSCAASGSSFPENAMGWYRQAPGKERQLVAGISRSDAGTHYADSVKGRFTISRDNAKNTVYVQMNSLKPEDTAVYYFDAGGTDEDRLTSWVGLFPAYYYWGQATQVTVSS | low polyreactivity
5 | QVQLVESGGGLVQAGGSLRLSCDASGRIFYINALGWYRQAPGKERELVASITGSGDSTYYADSVKGRFTISRDNAKNTVYLQMNILKPEDTAVYYCAARTYYYYGPRYYYWGQGTQVTVSS | low polyreactivity
6 | QVQLVESGGGLVQAGGSLRLSCAASGSTFYLYARGWFSQAPGKVRELGAAIRTSGGSTYYADSGKGRFTISRDTAKNTVYLQMNSLKPEDTAVYSCTAAWPYNSVEYWGQGTQVTVSS | low polyreactivity
7 | QVQLVESGGGLVQAGGSLRLSCAASGFIFRYNAMGWYRQAPGKERELVAAITSNGGRTYYADSVKGRFTISRDNAKNTVYLQMNSLKPEDTAVYYCNALGRTYPAYQDDYWGQGTQVTVSS | high polyreactivity
8 | QVQLVESGGGLVQAGGTLRLSCAASGRIFRYNGMGWYRQAPVKERELVAGINWIGGRTYYADSVKGRFTISRDNAKNTVYLQMNSLKPEDTAVYYCAAYWYYIKATTDSDARFDYWGQGTQVTVSS | high polyreactivity
9 | QVQLVESGGGLVQAGGSLRLSCAASGRTFGRNAMGWYRQAPGERELVAVISRRGSTYYADSVKGRFTISRDNAKNTVYLQMNSLKPEETAVDYCAAYYYIGGKYGSQVYEYDYWGQGTQVTVSS | low polyreactivity
10 | QVQLVESGGRLVQAGGSLRLSCAASGLTFDPNDMGWYRQAPGKERELVAAISWSSGSTYYADSVKGRFTISRDNAKNTVYLQMNSLKPEDTAVYYCAAYFTLLFGTELYDYDYWGQGTQVTVSS | high polyreactivity
11 | QVQLVESGGGLVQAGGSLRLSCAASGRIFPYNAMGWSRQAPGKERELVASITSGGGSTYYADSVKGRFTISRDNAKNTVYLQMKSLKPEDTAVYYCSTRGYAWSSDKFGYWGQGTQVTVSS | high polyreactivity
12 | QVQLVESGGGLVQAGGSLSLSCAASGYIFGPYDMGWYRQAPGKERELVAVIDWSGGSTYYADSVKGRFTISRDNAKNTFYLQMNSLKPEDTAVYYCAADISWGVSQFDYWGQGTQVTVSS | low polyreactivity
13 | QVQLVESGGGLVQAGGSLRLSCAASGRTFPYNAMGWYIQAPGKERELVAAISSGGSTNYADSVKGRFTISRDNAKNTVYLQMNSLKPEDTAVYYCAVTGWPRYTWYSYGYWGQGTQVTVSS | low polyreactivity
14 | QVQLVESGGGLVQAGGSLRLSCAASGSTFYLYAMGWYRQAPGKERELVAAISRGGTTYYADSVKGRFTISRDNAKNTVYLKMNSLKPEDTAVYYCAARRPWWYGGGMDYWGQGTQVTVSS | high polyreactivity
15 | QVQLVESGGGLVQAGGILRLSCAASGFTFWYYVMGWYRQAPGKERELVAAITSSGDSTYYADSVKGRFTISRDNAKNTVYLQMNSLKPEDTAVYYCAAQRYPFERVYWGQGTQVTVSS | high polyreactivity
16 | QVQLVESGGGLVQAGGSLRLSCAASGITFSGNAMGWYRQAPGKERELVAAISGGGSTNYADSVKGRFTISRDNAKNTVYLQMNSLKPEDTAVYYCAAEIIFWYLYRDYYYWGQGTQVTVSS | low polyreactivity
17 | QVQLVESGGGLVQAGCSLRLSCAASGRTFYFYTMGWYRQAPGKVRELVAAISWSGGSTYYADSVKGRFTISRDNAKYTVYLQMNSLKPEDTAVYYCNAVFFKGSESGLDYWGQGTQVTVSS | high polyreactivity
18 | QVQLVQSGGGLVHAGGSLRLSCAASGRIFGINAMGWYIQAPGKERELVAAINWSGGSTYYADSVKGRFTISRDNAKNTVYLQMNSLKPEDTAVYYCADQKYQRVGYWGQGTQVTVSS | high polyreactivity
19 | QVQHVESGGGLVQAGGSLRLSCAASGITFSSYAMGWYRQAPGKERELVAAISSGGSTYYADSVKGRFTISRDNAKNTVYFQMNSLKPEDTAVYYCAAELATYVPNKWYYRYTGYYYWGQGTQVTVSS | low polyreactivity
20 | QVQLVESGGGLVQAGGSLRLICAASGRTFNGYAMGWYRQAPGKERELVAAINASGGRTYYADSVKGRFTISRDNAKNTVYLQMNSLKPEDTAVYYCNARRYHWSVYYYDYWGQGTQVTVSS | high polyreactivity
21 | QVQLVESGGGLVQAGGSLRLSCAASGRIFIGNAMGWYRQAPGKERELVADISYSGGTTYYADSVKGRFTISRDNAKNTVYLQMNSLKPEDTAVYYCNKYDPRPVWQGWVWIEYYYWGQGTQVTVSS | low polyreactivity
22 | QVHLEESGGRLVQAGGSLRLSCSDSGRIIPRNVMGLYRQAPGKERELVAAISSRGTRTYYADSVKGRFTISRDNAKNTVFLQMNSLKPEDTAVYYCAADGPYDGYDFWGQGTQVTVSS | high polyreactivity

Row | Sequence | polyreactivity (PSR sort gate)
23 | QVQLVESGGGLVQAGGSLRLSCAASGSISVVNMGWYRQAPGKERELVASITSSGSTTYADSVKGRFTISRDNAKNTVYLQMNSLKPEDTAVYYCAADVGTDYTYQHPAGAAYDYWGQGTQVTVSS | low polyreactivity
24 | QVQLVESGGGLVQAGGSLRLSCAASGSTFYSYAMGWYRQAPGKERELVAAIDWSGDNTNYADSVKGRFTISRDNAKNTVYLQMNSLKPEDTAVYYCAAVYSYYRLYAYPAYYYWGQGTQVTVSS | low polyreactivity
25 | QVQLVESGGGLVQAGGSLRLRCAASGFPFDSYAMGWYRQAPGKERELVAAITSDGSTYYADSVKGRFTISRDNAKNTVYVLMNSLKPEDTAVYYCAADGISLYATAYDYWGQGTQVSVSS | low polyreactivity
26 | QVQLVESAGGLVQAGGSLRLSCAPSGRIFLTNAMGWYRQAPGKERELVAAITSGGSTYYADSVKGRFTISRDNAKNTVYLQMNSLKPEDTAVYYCNADTDRYWPYEYDYWGQGTQVTVSS | low polyreactivity
27 | QVQLVESGGGLVQAGGSLRLSCAASGSIFYNNVMGWYRQAPGKERELVAVISGGGSTNYADSVKGRFTISRDNAKNTDYLQMNSLKPEDTAVYYCAARGRYSYGDRYEYWGQGTQVTVSS | low polyreactivity
28 | QVQLVESGGGLVQAGGSLRLSCAASGSTLWFNAMGWYRQAPGKERELVAAISFSSGSTYYADSVKGRFTISRDNAKNTVYLQMNSLKPEDTAVYYCAARLRWWGYDYWGQGTQVTVSS | high polyreactivity
29 | QVQLVESGGGLVQAGGSLRLSCAASGRIFWYYAMGWYRQAPGKERELVATISSGGRTNYADSVKGRCTISRDNAKNTVYLQMNSLKPEDTAVYYCAAKHPISTLYDYWGQGTQVTVSS | high polyreactivity
30 | QVQLVESGGGLVQAGGSLRLSCAASGSTFPRYAMAWYRQAPGKERELVAAISSSGRTYYADSVKGRFTISRDNAKNTFYLQMNSLKPEDTAVYYCNAPVARGEASYYWGQGTQVTVSS | high polyreactivity
31 | QVQLVESGGGLDQAGGSLRLICAASGRIFKWYAMGWYRQAPGKERELVATITWSGGSTYYADSVKGRFTISRDNAQNTVYLQMNSLKAEDTAVYYCNADTWLALPCFDYWGQGTQVTVSS | high polyreactivity
32 | QVQLVESGGGLVQAGGSLRLSCAASGRTLYPYAMGWYRQAPGKERELVATITWGDGSTSYADSVKGRFTISRDNAKNTVYLQMNSLKPEDTAVYYCNVRISNTSYRYPTFDYWGQGTQVTVSS | low polyreactivity
33 | QVHVVESGGGLVQAGGSLRLSCAASGFTFAKYAMGWYRQAPGKERELVAVITSSGGRTYYADSVKGRFTISRDNAKNTVYLQMNSLKPEDTAVYYCNAGKYVYATSQYDYWGQGTQVTVSS | high polyreactivity
34 | QVQLVESGGGLVQAGGSLRLSCAASGFTSYLYTMGWYRQAPGKERELVATITLRGGSTYYADSVKGRFTISRDNAKNTVYLQMNSLKPEDTAVYYCAAPAYLTSHSRYDYWGQGTQVSVSS | high polyreactivity
35 | QVQLVESGGGLVKAGGSLRLSCAASGSIFPDNAMGWYRQAPGKERELVAAISEGSTSTYYADSVKGRFTISRDNAKYTVYLQMNSLKPEDTAVYYCAADYDTGYEYWGQGTQVTVSS | low polyreactivity
36 | QVQLVESGGGLVQAGGSLRLSCAASGFTFSGYAMGWYRHAPGKERELVAAISSRGGRTYYADSVKGRFTISRDNAKNTVYLQMNSLKPEDTAVYYCAARSRRTDNSVQFDYWGQGTQVTVSS | high polyreactivity
37 | QVQLVESGGGLVQAGGSLRLSCAASGFTFSYYAMGWYRQAPGKERELVAAISWNGGSTYYADSVKGRFTISRDNAKNTVYLQMNCLKPEDTAVYYCAADSLLYYYDTGYEYWGQGTQVTVSS | high polyreactivity
38 | QVQLGESGGGLVQAGGSLRLSCAASGRNFSTYTMGWYRQATWKERELVASISWSGVRTRYADSVKGRFTISRDNAKNTVYLQMNSLKPEDTAVYYCAAVVPYYYRSPSNHMGYWGQGTQVTVSS | high polyreactivity
39 | QVQLVESGGGLVQAGGSLRLSCAASGFTIYRYAMGWYRQAPGKERELVATIRRGGSTKYADSVKGRFTISRDNAKNTVYLQMNSLKPEDTAVYYCNARYYAAPDKYYYWGQGTQVTVSS | low polyreactivity
40 | QVQLVESGGGLVQAGGSLRLSCAASGFSFSRNAKGWYRQAPGKERELVAAISIRGGSTYYADSVKGRFTISRDNAKNTVYLQMNILKPEDTAVYYCNAYDLYRQRNGYGYWGQGTQVTVSS | high polyreactivity
41 | QVQLVESGGGLVQAGGSLRLSCAASGSIFQGNAMGWYRQAPGKERELVAAISQSGGRTYYADSVKGRFTITRDNAKNTVYLQMNSLKPEDTAVYYCNTTKVYRLRFDYWGQGTQVTVSS | low polyreactivity
42 | QVQLVESGGGLVQAGGSLRLRCAASGFIFARYAMGWYRQAPGKERELVAAITWSGDSTYYAYSVKGRFTISRDNAKYTVYLQMNSLKPEDTAVYYCYPVSGYAKYDYWGQGTQVTVSS | low polyreactivity
43 | QVQLVESGGGLVQAGGSLRLSCAASGYTFPRNAMGWYRQEPGKERELVAAISASGGRTSYADSVKVRFTISRDNAKNTVYLQMNSLKPEDTAVYYCAAPFLRRIGYPRSYDYWGQGTQVTVSS | high polyreactivity
